Test results published in patent US20220267407A1 (published 2022).

Tests used:
[1] = target: T1, LMP2A (EBV) peptide on HLA-A*02:01 (human); assay: cytokine release
T1 peptide: MCLGGLLTMV

[2] = target: T2, LMP2A (EBV) peptide on HLA-A*02:01 (human); assay: half-maximum IFN-gamma release; peptide titration on K562-HLA-A*02:01, ELISA after 24 h, E:T 1:1; full-length, on cells
T2 peptide: CLGGLLTMV

[3] = target: T2, LMP2A (EBV) peptide on HLA-A*02:01; assay: the description's statement of this TCR's peptide sensitivity; K562-HLA-A*02:01 loaded with peptide, E:T 1:1; full-length, on cells
[4] = target: T3, LMP1 (EBV) peptide on HLA-C*15:02 (human); assay: cytokine release
T3 peptide: YLQQNWWTL

[5] = target: T4, LMP1 (EBV) peptide on HLA-C*15:02 (human); assay: cytokine release
T4 peptide: NSNEGRHHL

[6] = target: T5, LMP1 (EBV) peptide on HLA-C*15:02 (human); assay: cytokine release
T5 peptide: DSLPHPQQA

[7] = target: T6, LMP1 (EBV) peptide on HLA-C*15:02 (human); assay: half-maximum IFN-gamma release; peptide titration on K562-HLA-C*15:02, ELISA after 24 h, E:T 1:1; full-length, on cells
T6 peptide: QQNWWTLLV

[8] = target: T7, EBNA3C (EBV) peptide on HLA-C*06:02 (human); assay: cytokine release
T7 peptide: VRFLRGKWQ

[9] = target: T8, EBNA3C (EBV) peptide on HLA-C*06:02 (human); assay: cytokine release
T8 peptide: QRRYRRIYD

[10] = target: T9, EBNA3C (EBV) peptide on HLA-C*06:02 (human); assay: cytokine release
T9 peptide: LHHIWQNLL

[11] = target: T10, EBNA3C (EBV) peptide on HLA-C*06:02 (human); assay: cytokine release
T10 peptide: LRGKWQRRY

[12] = target: T11, EBNA3C (EBV) peptide on HLA-C*06:02 (human); assay: cytokine release
T11 peptide: NLLDFVRFM

[13] = target: T12, EBNA3C (EBV) peptide on HLA-C*06:02 (human); assay: cytokine release
T12 peptide: RRYRRIYDL

[14] = target: T13, EBNA3C (EBV) peptide on HLA-C*06:02 (human); assay: cytokine release
T13 peptide: YAREAEVRF

[15] = target: T14, EBNA3C (EBV) peptide on HLA-C*06:02 (human); assay: cytokine release
T14 peptide: RRYRRIYDLI

[16] = target: T15, EBNA3C (EBV) peptide on HLA-C*06:02 (human); assay: cytokine release
T15 peptide: RRRRGACVV

[17] = target: T16, EBNA3C (EBV) peptide on HLA-C*06:02 (human); assay: cytokine release
T16 peptide: RRGIKEHVI

[18] = target: T17, EBNA3C (EBV) peptide on HLA-C*06:02 (human); assay: cytokine release
T17 peptide: RRRGACVVY

[19] = target: T18, EBNA3C (EBV) peptide on HLA-C*06:02 (human); assay: cytokine release
T18 peptide: YAREAEVRFL

[20] = target: T19, EBNA3C (EBV) peptide on HLA-C*06:02 (human); assay: cytokine release
T19 peptide: ERYAREAEV

[21] = target: T20, EBNA3C (EBV) peptide on HLA-C*06:02 (human); assay: cytokine release
T20 peptide: SRRRRGACV

[22] = target: T21, EBNA3C (EBV) peptide on HLA-C*06:02 (human); assay: cytokine release
T21 peptide: VYDDDVIEV

[23] = target: T22, EBNA3C (EBV) peptide on HLA-C*06:02 (human); assay: cytokine release
T22 peptide: NRVGADSIM

[24] = target: T23, EBNA3C (EBV) peptide on HLA-C*06:02 (human); assay: cytokine release
T23 peptide: YRRIYDLIE

[25] = target: T24, EBNA3C (EBV) peptide on HLA-C*06:02 (human); assay: cytokine release
T24 peptide: RRGACVVYD

[26] = target: T25, EBNA3C (EBV) peptide on HLA-C*06:02 (human); assay: cytokine release
T25 peptide: QRRYRRIYDL

[27] = target: T26, EBNA3C (EBV) peptide on HLA-C*06:02 (human); assay: cytokine release
T26 peptide: WQRRYRRIY

[28] = target: T27, EBNA3C (EBV) peptide on HLA-C*06:02 (human); assay: cytokine release
T27 peptide: GCQNAARTL

[29] = target: T28, EBNA3C (EBV) peptide on HLA-C*06:02 (human); assay: cytokine release
T28 peptide: FLRGKWQRRY

[30] = target: T29, EBNA3C (EBV) peptide on HLA-C*06:02 (human); assay: cytokine release
T29 peptide: ARRGIKEHV

[31] = target: T30, EBNA3C (EBV) peptide on HLA-C*06:02 (human); assay: cytokine release
T30 peptide: VRFMGVMSS

[32] = target: T31, EBNA3C (EBV) peptide on HLA-C*06:02 (human); assay: cytokine release
T31 peptide: AREAEVRFL

[33] = target: T32, LMP1 (EBV) peptide on HLA-B*57:01 (human); assay: cytokine release
T32 peptide: NSNEGRHHL

[34] = target: T33, LMP1 (EBV) peptide on HLA-B*57:01 (human); assay: cytokine release
T33 peptide: IIALYLQQNW

[35] = target: T34, LMP1 (EBV) peptide on HLA-B*57:01 (human); assay: cytokine release
T34 peptide: WWTLLVDLLW

[36] = target: T35, LMP1 (EBV) peptide on HLA-B*57:01 (human); assay: cytokine release
T35 peptide: WTLLVDLLWL

[37] = target: T36, LMP1 (EBV) peptide on HLA-B*57:01 (human); assay: cytokine release
T36 peptide: LAILIWMYYH

[38] = target: T37, LMP1 (EBV) peptide on HLA-B*57:01 (human); assay: cytokine release
T37 peptide: FLAILIWMYY

[39] = target: T38, LMP1 (EBV) peptide on HLA-B*57:01 (human); assay: cytokine release
T38 peptide: IALYLQQNWW

[40] = target: T39, LMP1 (EBV) peptide on HLA-B*57:01 (human); assay: cytokine release
T39 peptide: LLFLAILIW

[41] = target: T40, LMP1 (EBV) peptide on HLA-B*57:01 (human); assay: cytokine release
T40 peptide: LLLFLAILIW

[42] = target: T41, LMP1 (EBV) peptide on HLA-B*57:01 (human); assay: cytokine release
T41 peptide: WTLLVDLLW

[43] = target: T42, LMP1 (EBV) peptide on HLA-B*57:01 (human); assay: cytokine release
T42 peptide: LAILIWMYY

[44] = target: T43, LMP1 (EBV) peptide on HLA-B*57:01 (human); assay: cytokine release
T43 peptide: ALYLQQNWW

[45] = target: T44, LMP1 (EBV) peptide on HLA-B*57:01 (human); assay: half-maximum IFN-gamma release; peptide titration on K562-HLA-B*57:01, ELISA after 24 h, E:T 1:1; full-length, on cells
T44 peptide: IALYLQQNW

[46] = target: T45, EBNA3C (EBV) peptide on HLA-B*44:02 (human); assay: half-maximum IFN-gamma release; peptide titration on K562-HLA-B*44:02, ELISA after 24 h, E:T 1:1; full-length, on cells
T45 peptide: AEGGVGWRHW

[47] = target: T46, EBNA3C (EBV) peptide on HLA-B*44:02 (human); assay: cytokine release
T46 peptide: WLLTSPSQSW

[48] = target: T47, EBNA3C (EBV) peptide on HLA-B*44:02 (human); assay: cytokine release
T47 peptide: LLTSPSQSW

[49] = target: T48, EBNA3C (EBV) peptide on HLA-B*44:02 (human); assay: cytokine release
T48 peptide: SERLVPEESY

B1: TCR06 (TCR, V domains shown)
Valpha: KQEVTQIPAALSVPEGENLVLNCSFTDSAIYNLQWFRQDPGKGLTSLLLIQSSQREQTSGRLNASLDKSSGRSTLYIAASQPGDSATYLCAVLMDSNYQLIWGAGTKLIIKP
Vbeta: DAGITQSPRYKITETGRQVTLMCHQTWSHSYMFWYRQDLGHGLRLIYYSAAADITDKGEVPDGYVVSRSKTENFPLTLESATRSQTSVYFCASSEDGMNTEAFFGQGTRLTVV
binding result [1]: recognises
EC50 of peptide [2]: 6 nM
EC50 of peptide [3]: ≤ 10 nM

B2: TCR83 (TCR, V domains shown)
Valpha: GQNIDQPTEMTATEGAIVQINCTYQTSGFNGLFWYQQHAGEAPTFLSYNVLDGLEEKGRFSSFLSRSKGYSYLLLKELQMKDSASYLCAAVNNAGNMLTFGGGTRLMVKP
Vbeta: DTAVSQTPKYLVTQMGNDKSIKCEQNLGHDTMYWYKQDSKKFLKIMFSYNNKELIINETVPNRFSPKSPDKAHLNLHINSLELGDSAVYFCASSQGYGGPSTDTQYFGPGTRLTVL
binding result [4]: no recognition
binding result [5]: no recognition
binding result [6]: no recognition
EC50 of peptide [7]: 2 nM

B3: TCR64 (TCR, V domains shown)
Valpha: TQLLEQSPQFLSIQEGENLTVYCNSSSVFSSLQWYRQEPGEGPVLLVTVVTGGEVKKLKRLTFQFGDARKDSSLHITAAQPGDTGLYLCAGDVDTGTASKLTFGTGTRLQVTL
Vbeta: DVKVTQSSRYLVKRTGEKVFLECVQDMDHENMFWYRQDPGLGLRLIYFSYDVKMKEKGDIPEGYSVSREKKERFSLILESASTNQTSMYLCASSLLGSGALYEQYFGPGTRLTVT
binding result [8]: no recognition
binding result [9]: no recognition
binding result [10]: no recognition
binding result [11]: no recognition
binding result [12]: no recognition
binding result [13]: no recognition
binding result [14]: no recognition
binding result [15]: no recognition
binding result [16]: no recognition
binding result [17]: no recognition
binding result [18]: no recognition
binding result [19]: no recognition
binding result [20]: no recognition
binding result [21]: no recognition
binding result [22]: no recognition
binding result [23]: no recognition
binding result [24]: no recognition
binding result [25]: no recognition
binding result [26]: no recognition
binding result [27]: no recognition
binding result [28]: no recognition
binding result [29]: no recognition
binding result [30]: no recognition
binding result [31]: no recognition
binding result [32]: no recognition

B4: TCR50 (TCR, V domains shown)
Valpha: AQSVTQLDSHVSVSEGTPVLLRCNYSSSYSPSLFWYVQHPNKGLQLLLKYTSAATLVKGINGFEAEFKKSETSFHLTKPSAHMSDAAEYFCVVMATGFQKLVFGTGTRLLVSP
Vbeta: DSGVTQTPKHLITATGQRVTLRCSPRSGDLSVYWYQQSLDQGLQFLIQYYNGEERAKGNILERFSAQQFPDLHSELNLSSLELGDSALYFCASSVTSGSDEQFFGPGTRLTVL
binding result [33]: no recognition
binding result [34]: recognises
binding result [35]: no recognition
binding result [36]: no recognition
binding result [37]: no recognition
binding result [38]: no recognition
binding result [39]: recognises
binding result [40]: no recognition
binding result [41]: no recognition
binding result [42]: no recognition
binding result [43]: no recognition
binding result [44]: recognises
EC50 of peptide [45]: 30 nM

B5: TCR25 (TCR, V domains shown)
Valpha: AQSVTQLDSHVSVSEGTPVLLRCNYSSSYSPSLFWYVQHPNKGLQLLLKYTSAATLVKGINGFEAEFKKSETSFHLTKPSAHMSDAAEYFCVAWDTGFQKLVFGTGTRLLVSP
Vbeta: EPEVTQTPSHQVTQMGQEVILRCVPISNHLYFYWYRQILGQKVEFLVSFYNNEISEKSEIFDDQFSVERPDGSNFTLKIRSTKLEDSAMYFCASKALADTQYFGPGTRLTVL
EC50 of peptide [46]: 600 nM
binding result [47]: no recognition
binding result [48]: no recognition
binding result [49]: no recognition

B6: TCR58 (TCR, V domains shown)
Valpha: RKEVEQDPGPFNVPEGATVAFNCTYSNSASQSFFWYRQDCRKEPKLLMSVYSSGNEDGRFTAQLNRASQYISLLIRDSKLSDSATYLCVASGDSSYKLIFGSGTRLLVRP
Vbeta: EPEVTQTPSHQVTQMGQEVILRCVPISNHLYFYWYRQILGQKVEFLVSFYNNEISEKSEIFDDQFSVERPDGSNFTLKIRSTKLEDSAMYFCASSDPLSTYNEQFFGPGTRLTVL
EC50 of peptide [46]: 300 nM
binding result [47]: no recognition
binding result [48]: no recognition
binding result [49]: no recognition
